System: Escherichia coli TOP10
Assay: shrunken log2 fold change of peptide-encoding DNA abundance (4.5 h post-induction vs induction); higher = less antimicrobial activity (less host growth inhibition)
Details: time post-induction: 4.5 h; library: site-saturation at positions 5, 18, 19, 20
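Further: peptides expressed intracellularly from a pBAD plasmid library in pooled LB shake-flask culture, induced with 0.3% L-arabinose, DNA abundance read by NGS, three biological replicates, DESeq2 with apeglm shrinkage.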

Row | Sequence | shrunken log2 fold change
1 | RRIRQRPPRLPRPRPRPDGIPRP | 0.087
2 | RRIRNRPPRLPRPRPRPHVLPRP | -0.245
3 | RRIRERPPRLPRPRPRPNKKPRP | -0.187
4 | RRIRKRPPRLPRPRPRPAFPPRP | 0.165
5 | RRIRERPPRLPRPRPRPTMCPRP | 0.292
6 | RRIRNRPPRLPRPRPRPLEGPRP | 0.033
7 | RRIRQRPPRLPRPRPRPVEHPRP | -0.00992
8 | RRIRNRPPRLPRPRPRPPWYPRP | -0.224
9 | RRIRNRPPRLPRPRPRPKKKPRP | 0.011
10 | RRIRTRPPRLPRPRPRPHYKPRP | -0.531
11 | RRIRQRPPRLPRPRPRPGLAPRP | 0.197
12 | RRIRARPPRLPRPRPRPSDQPRP | -0.0615
13 | RRIRYRPPRLPRPRPRPGCDPRP | -0.282
14 | RRIRGRPPRLPRPRPRPKKPPRP | -0.0158
15 | RRIRIRPPRLPRPRPRPWKLPRP | -0.0644
16 | RRIRLRPPRLPRPRPRPYSGPRP | -0.103
17 | RRIRARPPRLPRPRPRPWSYPRP | -0.0574
18 | RRIRSRPPRLPRPRPRPYDYPRP | -0.305
19 | RRIRCRPPRLPRPRPRPVVKPRP | 0.0236
20 | RRIRWRPPRLPRPRPRPWAVPRP | 0.0624
21 | RRIRGRPPRLPRPRPRPRTVPRP | 0.448
22 | RRIRLRPPRLPRPRPRPHKFPRP | -0.138
23 | RRIRLRPPRLPRPRPRPATAPRP | 0.214
24 | RRIRQRPPRLPRPRPRPVGVPRP | 0.475
25 | RRIRNRPPRLPRPRPRPYPCPRP | -0.00822

Row | Sequence | shrunken log2 fold change
26 | RRIRKRPPRLPRPRPRPRHAPRP | 0.727
27 | RRIRDRPPRLPRPRPRPIARPRP | 0.199
28 | RRIRRRPPRLPRPRPRPSSIPRP | -0.485
29 | RRIRGRPPRLPRPRPRPHCVPRP | 0.517
30 | RRIRHRPPRLPRPRPRPVKRPRP | -0.226
31 | RRIRWRPPRLPRPRPRPHNIPRP | -0.691
32 | RRIRFRPPRLPRPRPRPKNMPRP | -0.724
33 | RRIRYRPPRLPRPRPRPWASPRP | -0.154
34 | RRIRKRPPRLPRPRPRPDGYPRP | -0.0936
35 | RRIRTRPPRLPRPRPRPYLFPRP | -0.71
36 | RRIRRRPPRLPRPRPRPPNSPRP | -0.0871
37 | RRIRYRPPRLPRPRPRPWCIPRP | 0.0404
38 | RRIRDRPPRLPRPRPRPVAMPRP | 0.633
39 | RRIRGRPPRLPRPRPRPGEDPRP | 0.872
40 | RRIRGRPPRLPRPRPRPRYRPRP | 0.0699
41 | RRIRFRPPRLPRPRPRPYMRPRP | 0.00487
42 | RRIRPRPPRLPRPRPRPRNWPRP | 0.195
43 | RRIRNRPPRLPRPRPRPIMIPRP | -0.363
44 | RRIRSRPPRLPRPRPRPSRDPRP | -0.0156
45 | RRIRNRPPRLPRPRPRPKIWPRP | 0.0854
46 | RRIRKRPPRLPRPRPRPAIHPRP | -0.0696
47 | RRIRGRPPRLPRPRPRPHMMPRP | -0.0708
48 | RRIRNRPPRLPRPRPRPWRVPRP | 0.515
49 | RRIRGRPPRLPRPRPRPRLNPRP | 0.57
50 | RRIRGRPPRLPRPRPRPIAGPRP | 0.701

Row | Sequence | shrunken log2 fold change
51 | RRIRLRPPRLPRPRPRPAVTPRP | -0.0968
52 | RRIRWRPPRLPRPRPRPKYMPRP | -0.501
53 | RRIRVRPPRLPRPRPRPEPDPRP | 0.242
54 | RRIRCRPPRLPRPRPRPRFNPRP | -0.288
55 | RRIRLRPPRLPRPRPRPVYQPRP | -0.0597
56 | RRIRQRPPRLPRPRPRPKKNPRP | 0.0205
57 | RRIRQRPPRLPRPRPRPFWCPRP | 0.0825
58 | RRIRYRPPRLPRPRPRPVDAPRP | -0.42
59 | RRIRERPPRLPRPRPRPQTCPRP | -0.0436
60 | RRIRQRPPRLPRPRPRPPQFPRP | 0.076
61 | RRIRVRPPRLPRPRPRPVYLPRP | -0.108
62 | RRIRVRPPRLPRPRPRPTQEPRP | 0.124
63 | RRIRHRPPRLPRPRPRPKDSPRP | 0.0292
64 | RRIRPRPPRLPRPRPRPAYRPRP | -0.0399
65 | RRIRKRPPRLPRPRPRPDACPRP | 0.00649
66 | RRIRQRPPRLPRPRPRPYEHPRP | 0.00367
67 | RRIRCRPPRLPRPRPRPFFAPRP | 0.216
68 | RRIRIRPPRLPRPRPRPHKPPRP | -0.00445
69 | RRIRLRPPRLPRPRPRPRFWPRP | 0.486
70 | RRIRHRPPRLPRPRPRPIFTPRP | -0.191
71 | RRIRIRPPRLPRPRPRPYMRPRP | 0.0163
72 | RRIRHRPPRLPRPRPRPRIFPRP | -0.121
73 | RRIRKRPPRLPRPRPRPFEIPRP | -0.201
74 | RRIRHRPPRLPRPRPRPTTTPRP | -0.0186
75 | RRIRTRPPRLPRPRPRPNGKPRP | -0.189

Row | Sequence | shrunken log2 fold change
76 | RRIRSRPPRLPRPRPRPGTGPRP | 0.103
77 | RRIRFRPPRLPRPRPRPIHDPRP | -0.211
78 | RRIRTRPPRLPRPRPRPSESPRP | 0.122
79 | RRIRSRPPRLPRPRPRPWKPPRP | -0.0117
80 | RRIRDRPPRLPRPRPRPNNKPRP | -0.682
81 | RRIRMRPPRLPRPRPRPFAKPRP | 0.3
82 | RRIRHRPPRLPRPRPRPVKQPRP | -0.0982
83 | RRIRRRPPRLPRPRPRPMNNPRP | -0.137
84 | RRIRCRPPRLPRPRPRPGPSPRP | 0.17
85 | RRIRLRPPRLPRPRPRPVHVPRP | -0.0937
86 | RRIRIRPPRLPRPRPRPERFPRP | -0.0158
87 | RRIRPRPPRLPRPRPRPLDYPRP | -0.495
88 | RRIRVRPPRLPRPRPRPDGSPRP | -0.0225
89 | RRIRNRPPRLPRPRPRPDIHPRP | -0.0173
90 | RRIRQRPPRLPRPRPRPACDPRP | 0.0239
91 | RRIRTRPPRLPRPRPRPHWVPRP | 0.381
92 | RRIRHRPPRLPRPRPRPHQFPRP | 0.0262
93 | RRIRQRPPRLPRPRPRPQPVPRP | 0.00167
94 | RRIRTRPPRLPRPRPRPISNPRP | -0.576
95 | RRIRERPPRLPRPRPRPPTLPRP | 0.162
96 | RRIRTRPPRLPRPRPRPCATPRP | -0.0683
97 | RRIRQRPPRLPRPRPRPFVWPRP | 0.049
98 | RRIRFRPPRLPRPRPRPCDCPRP | -0.0184
99 | RRIRVRPPRLPRPRPRPYQMPRP | -0.34
100 | RRIRHRPPRLPRPRPRPADDPRP | 0.083

Row | Sequence | shrunken log2 fold change
101 | RRIRIRPPRLPRPRPRPHEHPRP | -0.405
102 | RRIRWRPPRLPRPRPRPAYNPRP | -0.389
103 | RRIRGRPPRLPRPRPRPWGEPRP | 0.285
104 | RRIRARPPRLPRPRPRPHFEPRP | 0.703
105 | RRIRFRPPRLPRPRPRPTTKPRP | -0.167
106 | RRIRTRPPRLPRPRPRPYMKPRP | -0.0199
107 | RRIRYRPPRLPRPRPRPQIWPRP | -0.662
108 | RRIRRRPPRLPRPRPRPCFDPRP | 0.1
109 | RRIRSRPPRLPRPRPRPPCLPRP | -0.105
110 | RRIRCRPPRLPRPRPRPVIVPRP | -0.208
111 | RRIRGRPPRLPRPRPRPCVMPRP | 0.516
112 | RRIRNRPPRLPRPRPRPNYSPRP | -0.364
113 | RRIRMRPPRLPRPRPRPYYEPRP | -0.28
114 | RRIRKRPPRLPRPRPRPMIMPRP | -0.0451
115 | RRIRTRPPRLPRPRPRPCPNPRP | -0.000921
116 | RRIRWRPPRLPRPRPRPPFGPRP | 0.274
117 | RRIRLRPPRLPRPRPRPYRSPRP | -0.0017
118 | RRIRSRPPRLPRPRPRPANWPRP | 0.343
119 | RRIRWRPPRLPRPRPRPRCKPRP | 0.33
120 | RRIRMRPPRLPRPRPRPIGPPRP | 0.069
121 | RRIRRRPPRLPRPRPRPYPTPRP | -0.0423
122 | RRIRFRPPRLPRPRPRPIPVPRP | 0.0949
123 | RRIRHRPPRLPRPRPRPMITPRP | -0.658
124 | RRIRPRPPRLPRPRPRPLFLPRP | -0.0037
125 | RRIRQRPPRLPRPRPRPQHTPRP | -0.69

Reference: the supplement of paper PMC9112550, “Optimization of the antimicrobial peptide Bac7 by deep mutational scanning” (BMC Biology, 2022)
